Measured values as given in paper PMC7568402.

Test system: CC(=O)N[C@H]1[C@H](Oc2ccc([N+](=O)[O-])cc2)O[C@H](CO)[C@@H](O)[C@@H]1O
Assay: p-nitrophenol release, A405, non-linear regression
Format: biochemical, Bifidobacterium longum subsp. infantis
Details: pH 5.0, 37 °C, 50 mM Na2HPO4, apparent kinetics

Work on “Blon_0459 (Bifidobacterium longum subsp. infantis ATCC 15697 = JCM 1222 = DSM 20088)” yielded a Km of 0.33 ± 0.04 mM.

“Blon_0732 (Bifidobacterium longum subsp. infantis ATCC 15697 = JCM 1222 = DSM 20088)” was tested, and the Km was 1.64 ± 0.85 mM, the kcat was 104 ± 46.2 s⁻¹ and the kcat/Km was 65000 ± 543 M⁻¹ s⁻¹.

For “Blon_2355 (Bifidobacterium longum subsp. infantis ATCC 15697 = JCM 1222 = DSM 20088)”, the Km was 0.48 ± 0.02 mM.
